From publication PMC8248744, “High-resolution genetic mapping reveals cis-regulatory and copy number variation in loci associated with cytochrome P450-mediated detoxification in a generalist arthropod pest” (PLoS Genetics, 2021)

Substrate: COC(c1ccc(NC(=O)c2c(C)nn(C)c2C)cc1CC(C)C)(C(F)(F)F)C(F)(F)F
Experiment: HPLC-UV substrate depletion, recombinant membranes
Format: biochemical, Tetranychus urticae
Conditions: NADPH-regenerating system, 0.2 M Tris-HCl pH 7.4, 0.25 mM MgCl2, 2.5% acetonitrile, 30°C, N-demethylation at pyrazole, co-expressed with TuCPR

B1: CYP392A16 (Tetranychus urticae) (protein)
chain: MIEVIHSGSIPDGHFTVSTIMFLISNLLSSQPLVNSLIGLALFWLVKYLFNTIQRIRSLPAGPWGLPIVGYLPFIKDDIYLVFDQLSKKYGPVYSLKLGSFDVVLVCDWPHMKDAVANDALLARQHEVFFPGVVEGRSFAEMSGDPWREHRRLSLHILRDVGLGKSTIETLVKEEVDQFLSALENNGKPADFEKCISRSVTNNVSILLFGHKYERDDPTAIAISSANTEVGRSFSFAGVVAFLPWLAELVFKFELFNVTRLKKCFQIVDTHIQDEIVKHQEKNSQEVVDYIDGYLVEKKNREKQNKVDDNFTIEILRRNAGAFYGAGTETVSSTMEWIMVYLVKYPEYQDKIRSEIADVIGFERKPDYVDRNRMPFTMAFIHEIHRIGSVVANNLLRRAASDTKIGNYNIPKDTLVILNFWSVNRDPKLWPNPDEFDPTRFLTEDGSKVVKPPHLIPFSAGKRNCPGESLANVELFLYLVCMLQKYHVKVKPGTKISTEAIFGLSRRPSQLPTFIFEKISNSN
notes: E. coli BL21STAR membrane fraction; with NADPH--cytochrome P450 reductase
Km: 17.79 (± 3.29 SE) μM
